Series [1] concerns the target GST-SAP (Homo sapiens) (UniProt Q9NS91). Put plainly: SPR.
The target of series [2] is human Rad18 (Rad18 1–495) (human) (UniProt Q9NS91). Put plainly: SEC-MALS. (Size exclusion chromatography separates by hydrodynamic size, large species first.)

GST-SAP (Homo sapiens), sequence (Q9NS91 whole entry): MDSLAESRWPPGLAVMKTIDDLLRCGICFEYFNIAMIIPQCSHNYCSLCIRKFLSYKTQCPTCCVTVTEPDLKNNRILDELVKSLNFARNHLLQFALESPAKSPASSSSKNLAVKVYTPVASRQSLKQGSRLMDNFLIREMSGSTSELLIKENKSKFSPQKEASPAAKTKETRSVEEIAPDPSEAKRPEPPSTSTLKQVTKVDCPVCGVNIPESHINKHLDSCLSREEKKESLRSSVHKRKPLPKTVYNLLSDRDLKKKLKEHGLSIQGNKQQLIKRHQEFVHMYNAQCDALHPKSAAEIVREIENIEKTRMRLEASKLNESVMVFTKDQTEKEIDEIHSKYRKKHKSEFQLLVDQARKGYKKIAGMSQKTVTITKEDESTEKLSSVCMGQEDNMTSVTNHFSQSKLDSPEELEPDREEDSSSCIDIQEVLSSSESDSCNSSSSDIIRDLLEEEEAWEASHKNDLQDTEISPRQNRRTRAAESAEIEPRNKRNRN
human Rad18 (Rad18 1–495), sequence (Q9NS91 whole entry): as above

Consider 40-mer dsDNA, for which the Kd (in general, the concentration at which binding is half-saturated) in series [1] worked out at 5.6 µM.
The same measure, in the same setting: next, “TTTTTTTTTTTTTTTTTTTTTTTTTTTTTTTTTTTTTTTT [40T]”: 1.1 µM.
For the substance “human Rad18 (Rad18 1–495) (from UniProt Q9NS91 1-495) (natural protein)”, in series [2], the stoichiometry N (in general, the number of molecules, sites or subunits per partner or assembly) worked out at 2.

Source of the values: paper PMC2034485.
